Here are results for twelve molecules from patent publication US20160075781A1 (IMMUNOGEN, published 2016).

The target in experiment [1] is T1, human folate receptor 1 (human, UniProt P15328 25-234).
T1 construct: also called FOLR1; Folate Receptor-alpha
As to the kind of experiment: flow cytometry on FOLR1-expressing SKOV3 cells; apparent Kd from the fit of MFI against antibody concentration. How it is done: Binding affinities of anti-FOLR1 antibodies and of their SPDB-DM4, PEG4Mal-DM4, SMCC-DM1, or anti-FOLR1-sulfo-SPDB-DM4 conjugates were assayed by Flow Cytometry. FOLR1-expressing SKOV3 cells were incubated with varying concentrations of anti-FOLR1 antibodies or their conjugates and processed as described above for flow cytometry analysis. Data analysis was performed using CellQuest Pro (BD Biosciences, San Diego, US) and for each sample the mean fluorescence intensity for FL1 (MFI) was exported and plotted against the antibody concentration in a semi-log plot. A dose-response curve was generated by non-linear regression and the value for the apparent equilibrium dissociation constant (Kd) of the test-samples for the binding to SKOV3 cells was calculated using GraphPad Prism v4 (GraphPad software, San Diego, Calif.) and presented in FIG. 5.
On the technique in general: A flow cytometer gives signals particle by particle.

Experiment [2] has as its target T1, human folate receptor 1. As to the kind of experiment: apparent affinity, flow cytometry on FOLR1-expressing cells ('as described above'; cell line not named in Example 19, SKOV3 in Example 13).
The target in experiment [3] is T1, human folate receptor 1. As to the kind of experiment: cell-based or functional assay.

T1 sequence (P15328 25-234 limits assumed): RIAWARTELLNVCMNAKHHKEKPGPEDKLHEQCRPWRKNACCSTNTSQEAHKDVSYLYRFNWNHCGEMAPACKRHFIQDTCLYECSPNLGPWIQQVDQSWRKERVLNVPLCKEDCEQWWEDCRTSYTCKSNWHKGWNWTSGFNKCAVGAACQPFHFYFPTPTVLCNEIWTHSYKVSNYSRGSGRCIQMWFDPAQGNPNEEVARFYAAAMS

B1: muFR1-13 (antibody, V domains shown)
VH: QVQLKESGPDLVAPSQSLSITCTVSGFSLSRYSVHWIRQPPGKGLEWLGMIWSGGNTDYNSVFKSRLNITKDNSKSQVFLKMNSLQTDDTAIYYCATFDGKVSWFAYWGQGTLVTVSA
VL: SIVMTQTPKFLLVSTGDRFTITCKASQSVSNDVLWYQQKPGQSPKLLIYYAYNRYSGVPDRFTGSGYGTDFTFTITTVQSEDLAVYFCQQDHSSPFTFGSGTKLEIKR
As for B1, the Kd in the experiment with human folate receptor 1 [1] is 0.66 nM.

B2: huFR1-57 (antibody, human IgG1, kappa, V domains shown)
VH: EVQLVESGGGLVQPGGSRRLSCAASGFTFSSFGMHWVRQAPGKGLEWVAYISSGSSTISYADSVKGRFTISRDNSKKTLLLQMTSLRAEDTAMYYCAREAYGSSMEYWGQGTLVTVSS
VL: EIVLTQSPATLSVTPGDRVSLSCRASQNINNNLHWYQQKPGQSPRLLIKYVSQSVSGIPDRFSGSGSGTDFTLSISSVEPEDFGMYFCQQSNSWPHYTFGQGTKLEIKR
Take B2: the Kd in the experiment with human folate receptor 1 [2] was 0.14 nM.

B3: huFR1-65 (antibody, human IgG1, kappa, V domains shown)
VH: QVQLVQSGAEVAKPGASVKMSCKASGYTFTSYTMHWVKQRPGQGLAWIGYINPISGYTNYNQKFQGKATLTADKSSSTAYMQLNSLTSEDSAVYYCASGGAYGRKPMDYWGQGTSVTVSS
VL: EIVMTQSPATMSTSPGDRVSVTCKASQNVGPNVAWYQQKPGQSPRALIYSASYRYSGVPARFTGSGSGTDFTLTISNMQSEDLAEYFCQQYNSYPYTFGQGTKLEIKR
Take B3: in the experiment with human folate receptor 1 [2], the Kd turned out to be 0.15 nM.

B4: muFR1-9 (antibody, V domains shown)
VH: QVQLVESGGGLVQPGGSRKLSCAASGFTFSSFGMHWVRQAPEKGLEWVAYISSGSSTFYYADTVKGRFTISRDNPKNTLFLQMTSLRSEDTAMYYCAKELTGTFAYWGQGTLVTVSA
VL: DIVLTQSPATLSVTPGDSVSLSCRASQSINNNLHWYQQKSHESPRLLIKYASQSISGIPSRFSGSGSGTDFTLSINSVETEDFGMYFCQQSNSWPQVTFGAGTKLELKR
B4: in the experiment with human folate receptor 1 [1], the Kd is 0.13 nM.

B5: muFR1-21 PEG4-mal-DM4 conjugate (antibody, mouse IgG2b, kappa, V domains shown)
VH: EVKLVESGGDLVKPGGSLKLSCAASGFTFSSYGMSWVRQTPDKRLECVATISSGGSYTYYPDGVKGRFTISRDNAKNTLYLQMSSLKSEDTAMYYCARDGEGGLYAMDYWGQGTSVTVSS
VL: DIQMTQSSSYLSVSLGGRVTITCKASDHINNWLAWYQQKPGNAPRLLISGATSLETGVPSRFSGSGSGKDYTLSISSLQTEDVATYYCQQYWSTPFTFGSGTKLEIKR
modifications: DM4 linked through PEG4-mal; sites not given
Regarding B5, the “IC50, cytotoxic activity of the PEG4-mal-DM4 conjugate on KB cells, continuous exposure (WST-8 survival)” value (shortened to “IC50, cytotoxic activity”) with human folate receptor 1 [3] is 0.1 nM.

B6: huFR1-21-PEG4-mal-DM4 (antibody, human IgG1, kappa, V domains shown)
VH: EVQLVESGGDVVKPGGSLKLSCAASGFTFSSYGMSWVRQTPGKGLECVATISSGGSYTYYSPGFQGRFTISRDKSKNTLYLQMSSLKAEDTAMYYCARDGEGGLYAMDYWGQGTSVTVSS
VL: DIQMTQSSSSLSVSVGGRVTITCKASDHINNWLAWYQQKPGKAPKLLISGATSLETGVPSRFSGSGSGKDYTLSISSLQPEDVATYYCQQYWSTPFTFGQGTKLEIKR
modifications: maytansinoid DM4 attached through the PEG4-mal linker; residues and chain not stated
B6: the “IC50, cytotoxic activity” value with human folate receptor 1 [3] worked out at 0.1 nM.

B7: huFR1-21 (antibody, human IgG1, kappa, V domains shown)
VH: EVQLVESGGDVVKPGGSLKLSCAASGFTFSSYGMSWVRQTPGKGLECVATISSGGSYTYYSPGFQGRFTISRDKSKNTLYLQMSSLKAEDTAMYYCARDGEGGLYAMDYWGQGTSVTVSS
VL: DIQMTQSSSSLSVSVGGRVTITCKASDHINNWLAWYQQKPGKAPKLLISGATSLETGVPSRFSGSGSGKDYTLSISSLQPEDVATYYCQQYWSTPFTFGQGTKLEIKR
notes: unconjugated humanized FR1-21; also called humanized FR1-21
As to B7, the Kd with human folate receptor 1 [1] was determined as 0.07 nM.

B8: muFR1-21 (antibody, mouse IgG2b, kappa, V domains shown)
VH: EVKLVESGGDLVKPGGSLKLSCAASGFTFSSYGMSWVRQTPDKRLECVATISSGGSYTYYPDGVKGRFTISRDNAKNTLYLQMSSLKSEDTAMYYCARDGEGGLYAMDYWGQGTSVTVSS
VL: DIQMTQSSSYLSVSLGGRVTITCKASDHINNWLAWYQQKPGNAPRLLISGATSLETGVPSRFSGSGSGKDYTLSISSLQTEDVATYYCQQYWSTPFTFGSGTKLEIKR
notes: murine anti-FOLR1 antibody; also called murine FR1-21
In the case of B8, the Kd in the experiment with human folate receptor 1 [1] came out at 0.07 nM.

B9: huMov19-PEG4-mal-DM4 (antibody, V domains shown)
VH: QVQLVQSGAEVVKPGASVKISCKASGYTFTGYFMNWVKQSPGQSLEWIGRIHPYDGDTFYNQKFQGKATLTVDKSSNTAHMELLSLTSEDFAVYYCTRYDGSRAMDYWGQGTTVTVSS
VL: DIVLTQSPLSLAVSLGQPAIISCKASQSVSFAGTSLMHWYHQKPGQQPRLLIYRASNLEAGVPDRFSGSGSKTDFTLNISPVEAEDAATYYCQQSREYPYTFGGGTKLEIKR
modifications: maytansinoid DM4 attached through the PEG4-mal linker; residues and chain not stated
For the molecule B9, in the experiment with human folate receptor 1 [3], the “IC50, cytotoxic activity” value was found to be 0.15 nM.

B10: huMov19 (antibody, V domains shown)
VH: QVQLVQSGAEVVKPGASVKISCKASGYTFTGYFMNWVKQSPGQSLEWIGRIHPYDGDTFYNQKFQGKATLTVDKSSNTAHMELLSLTSEDFAVYYCTRYDGSRAMDYWGQGTTVTVSS
VL: DIVLTQSPLSLAVSLGQPAIISCKASQSVSFAGTSLMHWYHQKPGQQPRLLIYRASNLEAGVPDRFSGSGSKTDFTLNISPVEAEDAATYYCQQSREYPYTFGGGTKLEIKR
notes: Resurfaced humanized Mov19, full IgG1/kappa; also called humanized Mov19
As to B10, the Kd came out at 0.06 nM in the experiment with human folate receptor 1 [2] and 0.07 nM with human folate receptor 1 [1].

B11: huFR1-48 (antibody, human IgG1, kappa, V domains shown)
VH: QVQLVQSGAEVAKPGASVKLSCKASGYTFTNYWMQWIKQRPGQGLEWIGAIYPGNGDSRYTQKFQGKATLTADKSSSTAYMQVSSLTSEDSAVYYCARRDGNYAAYWGQGTLVTVSA
VL: DIQMTQSPSSLSVSVGERVTITCRASENIYSNLAWYQQKPGKSPKLLVYAATNLADGVPSRFSGSESGTDYSLKINSLQPEDFGSYYCQHFWASPYTFGQGTKLEIKR
In the case of B11, the Kd with human folate receptor 1 [2] was determined as 0.13 nM.

B12: huFR1-49 (antibody, human IgG1, kappa, V domains shown)
VH: QVQLQQSGAVVAKPGASVKMSCKASGYTFTNYWMYWIKQRPGQGLELIGAIYPGNSDTTYNQKFQGKATLTAVTSANTVYMEVSSLTSEDSAVYYCTKRHDYGAMDYWGQGTSVTVSS
VL: DIQMTQSPSSLSVSVGERVTITCRASENIYTNLAWYQQKPGKSPKLLVYTASNLADGVPSRFSGSGSGTDYSLKINSLQPEDFGTYYCQHFWVSPYTFGQGTKLEIKR
Take B12: the Kd with human folate receptor 1 [2] turned out to be 0.08 nM.
